Laboratory results: patent US20120316071A1 (published 2012)

Molecular target: T1, Recombinant Human DLL4 (R&D Systems Cat#1506-D4/CF) (human, UniProt Q9NR61 27-524)
T1 construct: Bought recombinant protein; also called delta-like protein 4; Delta-like 4
Test: ECL (Meso Scale Discovery) multispot binding assay, DLL4 immobilised, Fab at 100 nM
Protocol: An 150 μl aliquot of 1% Bovine Serum Albumin (BSA) in Tris-buffered Saline Tween (TBST) was added to each well and allowed to incubate for 30 min at 20° C. followed by washing and tap drying to completely remove any residual solution. Subsequently, a 12.5 μl aliquot of 1% BSA TBST was added to each well followed by the addition of a 12.5 μl aliquot of a purified Fab. The plate was sealed and incubated for 1 hour at 20° C. with shaking
TAG-detection antibody at 25 μl was added to each well and allowed to incubate for 1 hour at 20° C. with shaking. Finally, 15 μl of Read Buffer P with Surfactant (Cat # R92PC-1, Meso Scale Discovery) was added to each well. The electrochemiluminescence was measured using a Sector Imager 2400 (Meso Scale Discovery). Data was analyzed by comparing the ECL signals for an antigen to the blank of each well. A signal to blank ratio of 4 or more was considered a “Hit” Fab.

B1: Fab VH5-51_IGHD5-18*01>3_IGHJ4*01 G100K/G104T (H:KT) & V3-4_IGLJ1*01 G23A (Fab, V domains shown)
VH: EVQLVQSGAEVKKPGESLKISCKGSGYSFTSYWIGWVRQMPGKGLEWMGIIYPGDSDTRYSPSFQGQVTISADKSISTAYLQWSSLKASDTAMYYCARRKYSYTYDYFDYWGQGTLVTVSS
VL: QTVVTQEPSFSVSPGGTVTLTCALSSGSVSTSYYPSWYQQTPGQAPRTLIYSTNTRSSGVPDRFSGSILGNKAALTITGAQADDESDYYCVLYMGSGISYVFGTGTKVTVL
notes: Fab expressed in E. coli; Plasmid A adds CH1 with His6 and Flag tags to the heavy chain; Plasmid E adds lambda CL to the light chain; also called G100K/G104T & G23A
ECL signal: 13500

B2: Fab VH5-51_IGHD5-18*01>3_IGHJ4*01 G100K/G104T (H:KT) & V3-4_IGLJ1*01 G27A (Fab, V domains shown)
VH: EVQLVQSGAEVKKPGESLKISCKGSGYSFTSYWIGWVRQMPGKGLEWMGIIYPGDSDTRYSPSFQGQVTISADKSISTAYLQWSSLKASDTAMYYCARRKYSYTYDYFDYWGQGTLVTVSS
VL: QTVVTQEPSFSVSPGGTVTLTCGLSSASVSTSYYPSWYQQTPGQAPRTLIYSTNTRSSGVPDRFSGSILGNKAALTITGAQADDESDYYCVLYMGSGISYVFGTGTKVTVL
notes: Fab expressed in E. coli; Plasmid A adds CH1 with His6 and Flag tags to the heavy chain; Plasmid E adds lambda CL to the light chain; also called G100K/G104T & G27A
ECL signal: 10700

B3: Fab VH5-51_IGHD5-18*01>3_IGHJ4*01 G100K/G104T (H:KT) & V3-4_IGLJ1*01 L24A (Fab, V domains shown)
VH: EVQLVQSGAEVKKPGESLKISCKGSGYSFTSYWIGWVRQMPGKGLEWMGIIYPGDSDTRYSPSFQGQVTISADKSISTAYLQWSSLKASDTAMYYCARRKYSYTYDYFDYWGQGTLVTVSS
VL: QTVVTQEPSFSVSPGGTVTLTCGASSGSVSTSYYPSWYQQTPGQAPRTLIYSTNTRSSGVPDRFSGSILGNKAALTITGAQADDESDYYCVLYMGSGISYVFGTGTKVTVL
notes: Fab expressed in E. coli; Plasmid A adds CH1 with His6 and Flag tags to the heavy chain; Plasmid E adds lambda CL to the light chain; also called G100K/G104T & L24A
ECL signal: 9630

B4: Fab VH5-51_IGHD5-18*01>3_IGHJ4*01 G100K/G104T (H:KT) & V3-4_IGLJ1*01 P35A (Fab, V domains shown)
VH: EVQLVQSGAEVKKPGESLKISCKGSGYSFTSYWIGWVRQMPGKGLEWMGIIYPGDSDTRYSPSFQGQVTISADKSISTAYLQWSSLKASDTAMYYCARRKYSYTYDYFDYWGQGTLVTVSS
VL: QTVVTQEPSFSVSPGGTVTLTCGLSSGSVSTSYYASWYQQTPGQAPRTLIYSTNTRSSGVPDRFSGSILGNKAALTITGAQADDESDYYCVLYMGSGISYVFGTGTKVTVL
notes: Fab expressed in E. coli; Plasmid A adds CH1 with His6 and Flag tags to the heavy chain; Plasmid E adds lambda CL to the light chain; also called G100K/G104T & P35A
ECL signal: 8260

B5: Fab VH5-51_IGHD5-18*01>3_IGHJ4*01 G100K/G104T (H:KT) & V3-4_IGLJ1*01 S25A (Fab, V domains shown)
VH: EVQLVQSGAEVKKPGESLKISCKGSGYSFTSYWIGWVRQMPGKGLEWMGIIYPGDSDTRYSPSFQGQVTISADKSISTAYLQWSSLKASDTAMYYCARRKYSYTYDYFDYWGQGTLVTVSS
VL: QTVVTQEPSFSVSPGGTVTLTCGLASGSVSTSYYPSWYQQTPGQAPRTLIYSTNTRSSGVPDRFSGSILGNKAALTITGAQADDESDYYCVLYMGSGISYVFGTGTKVTVL
notes: Fab expressed in E. coli; Plasmid A adds CH1 with His6 and Flag tags to the heavy chain; Plasmid E adds lambda CL to the light chain; also called G100K/G104T & S25A
ECL signal: 10200

B6: Fab VH5-51_IGHD5-18*01>3_IGHJ4*01 G100K/G104T (H:KT) & V3-4_IGLJ1*01 S26A (Fab, V domains shown)
VH: EVQLVQSGAEVKKPGESLKISCKGSGYSFTSYWIGWVRQMPGKGLEWMGIIYPGDSDTRYSPSFQGQVTISADKSISTAYLQWSSLKASDTAMYYCARRKYSYTYDYFDYWGQGTLVTVSS
VL: QTVVTQEPSFSVSPGGTVTLTCGLSAGSVSTSYYPSWYQQTPGQAPRTLIYSTNTRSSGVPDRFSGSILGNKAALTITGAQADDESDYYCVLYMGSGISYVFGTGTKVTVL
notes: Fab expressed in E. coli; Plasmid A adds CH1 with His6 and Flag tags to the heavy chain; Plasmid E adds lambda CL to the light chain; also called G100K/G104T & S26A
ECL signal: 11700

B7: Fab VH5-51_IGHD5-18*01>3_IGHJ4*01 G100K/G104T (H:KT) & V3-4_IGLJ1*01 S28A (Fab, V domains shown)
VH: EVQLVQSGAEVKKPGESLKISCKGSGYSFTSYWIGWVRQMPGKGLEWMGIIYPGDSDTRYSPSFQGQVTISADKSISTAYLQWSSLKASDTAMYYCARRKYSYTYDYFDYWGQGTLVTVSS
VL: QTVVTQEPSFSVSPGGTVTLTCGLSSGAVSTSYYPSWYQQTPGQAPRTLIYSTNTRSSGVPDRFSGSILGNKAALTITGAQADDESDYYCVLYMGSGISYVFGTGTKVTVL
notes: Fab expressed in E. coli; Plasmid A adds CH1 with His6 and Flag tags to the heavy chain; Plasmid E adds lambda CL to the light chain; also called G100K/G104T & S28A (light chain)
ECL signal: 11500

B8: Fab VH5-51_IGHD5-18*01>3_IGHJ4*01 G100K/G104T (H:KT) & V3-4_IGLJ1*01 S30A (Fab, V domains shown)
VH: EVQLVQSGAEVKKPGESLKISCKGSGYSFTSYWIGWVRQMPGKGLEWMGIIYPGDSDTRYSPSFQGQVTISADKSISTAYLQWSSLKASDTAMYYCARRKYSYTYDYFDYWGQGTLVTVSS
VL: QTVVTQEPSFSVSPGGTVTLTCGLSSGSVATSYYPSWYQQTPGQAPRTLIYSTNTRSSGVPDRFSGSILGNKAALTITGAQADDESDYYCVLYMGSGISYVFGTGTKVTVL
notes: Fab expressed in E. coli; Plasmid A adds CH1 with His6 and Flag tags to the heavy chain; Plasmid E adds lambda CL to the light chain; also called G100K/G104T & S30A
ECL signal: 10300

B9: Fab VH5-51_IGHD5-18*01>3_IGHJ4*01 G100K/G104T (H:KT) & V3-4_IGLJ1*01 S32A (Fab, V domains shown)
VH: EVQLVQSGAEVKKPGESLKISCKGSGYSFTSYWIGWVRQMPGKGLEWMGIIYPGDSDTRYSPSFQGQVTISADKSISTAYLQWSSLKASDTAMYYCARRKYSYTYDYFDYWGQGTLVTVSS
VL: QTVVTQEPSFSVSPGGTVTLTCGLSSGSVSTAYYPSWYQQTPGQAPRTLIYSTNTRSSGVPDRFSGSILGNKAALTITGAQADDESDYYCVLYMGSGISYVFGTGTKVTVL
notes: Fab expressed in E. coli; Plasmid A adds CH1 with His6 and Flag tags to the heavy chain; Plasmid E adds lambda CL to the light chain; also called G100K/G104T & S32A
ECL signal: 10400
